Reference: the supplement of paper PMC9170038

Tested on: MS2 coat protein
Assay: apparent KD of MS2 coat protein; designed switch direction (-1 OFF switch, 1 ON switch): 1; higher = weaker reporter binding
How it was run: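 Three titration conditions were used: no input, 200 uM small-molecule ligand, and an oligonucleotide input. In each, SNAP-549-labelled MS2 coat protein was raised from 0.7 or 1.5 nM, doubling, to 3 µM over designed RNA switches transcribed on Illumina chips by stalled E. coli RNA polymerase. Curve fits of normalised cluster fluorescence gave values whose per-design median over clusters is the apparent KD.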

[1] = Eterna round: R95, input ligand: FMN 200 uM
[2] = Eterna round: R95, input ligand: microRNA oligo, concentration not stated
[3] = Eterna round: R95, input ligand: none
[4] = input ligand: microRNA oligo, concentration not stated

Row | Sequence | apparent KD of MS2 coat protein [1] [µM] | apparent KD of MS2 coat protein [2] [µM] | apparent KD of MS2 coat protein [3] [µM] | apparent KD of MS2 coat protein (input ligand: FMN 200 uM) [µM] | apparent KD of MS2 coat protein [4] [µM] | apparent KD of MS2 coat protein (input ligand: none) [µM]
1 | AUAAGGCAAGCUUUUUUCUCGUAGUGUAAACAUGAGGAUCACCCAUGUGCCCACCCUGGAUCUUUGGAUCGCGGAAC [Raxesori] (puzzle: Sensor for hsa-mir-208a) | 0.0836 | 0.0271 | 0.104 |  |  | 
2 | CGCCAACGCAUAGGAUAUGCUUGUGUGGAUCGGGCAGAAGGGUGGUUGGAAACAUGAGGAUCACCCAUGUAAAAGUAAGAAAAU [Rierinqu] (Eterna round: R96, puzzle: Same State NG 1) |  |  |  | 1.45 | 0.926 | 0.668
3 | UUUCCAUAGAUAGGAUAUCAGUUUACAUGAGGAUCACCCAUGUUCUCUUUGGUUAUAAUUAUAUCUGAGAAGGAUCUUGAUGAA [JR_SSNG2_Sub002] (Eterna round: R96, puzzle: Same State NG 2) |  |  |  |  | 0.0204 | 
4 | CCGGUAUAUGGAGGAUAUGGAGCCUUAUUGGCUCCAGAAGGCUAAUAACAUGAGGAUCACCCAUGUCCGGCGGUCAAUAGACCG [Eli NG1ss - 59] (Eterna round: R96, puzzle: Same State NG 1) |  |  |  | 0.0667 | 0.113 | 0.336
5 | GAGAGAUGGCGAGGAUAUUCGGUGAUAAUGAUGGAAGAAGGCGCUGACAUGAGGAUCACCCAUGUGGGAAUAAUCCAGAGAGAG [Parity 16 - Jieux - Same State NG 1] (Eterna round: R96, puzzle: Same State NG 1) |  |  |  | 0.306 | 0.154 | 0.257
6 | GUUACAUGAGGAUCACCCAUGUAUGUGUGGGAGUAAGUGUCUUAGGAUAUCUGUUAUUUAAUUCAAGAGAAGGAAGAUUGUUGU [JMF's solution 46] (Eterna round: R96, puzzle: Same State NG 3) |  |  |  | 0.0946 | 0.0791 | 0.0937
7 | GGCGUCUGUCAAGGAUAUGCUACCGUUUCGGUAGCAGAAGGUGAUCACAUGAGGAUCACCCAUGUUUAGGCCAACAGGCCCGCC (Eterna round: R96, puzzle: Same State NG 1) |  |  |  | 1.27 | 0.222 | 1.41
8 | UUGCGGGCUUGAGGAUAUUGAGUACAUAUGUUUAACAUGAGGAUCACCCAUGUGGGUUGCGGUAUCGAGAAGGUAACUUACUAC [salish99_SSNG2_r04_807] (Eterna round: R96, puzzle: Same State NG 2) |  |  |  | 0.11 | 0.0704 | 0.0972
9 | AGAGCCGGCACUGAGGAUAUUCAUAUUAAAACAUGAGGAUCACCCAUGUAGGCCAGAAGGCCUUGGGAGAAGGCAGGUCGGCUCU [Mat - Same State 2 - Mod of UCT - D61] (Eterna round: R96, puzzle: Same State 2) |  |  |  | 0.0187 | 0.201 | 0.366
10 | ACAUGAGGAUCACCCAUGUAGGCUCAGGAAACUGUGCCACAUGAGGAUAUGGAUCCUAAUUGGAUCCAGAAGGCAUGUAUUAUU [Fiskers NG3ss - 22] (Eterna round: R96, puzzle: Same State NG 3) |  |  |  | 0.112 | 0.0416 | 0.0661
11 | GCUAGGAUAUGACCAGGAUCACCGGUUAGAAGGAGCGAAAGCUAGGAUAUGACCAGGAUCACCGGUUAGAAGGAGCUGUCCUCC [pwkr ssNG3 DX 2xF5 +2xFMN.12] (Eterna round: R96, puzzle: Same State NG 3) |  |  |  | 0.0691 | 0.101 | 0.117
12 | GGAAACUUGAGAGGAUAUGUAGAGGAUCACCCUACAGAAGGCUCAUUUGAGAGGAUAUGUAGAGGAUCACCCUACAGAAGGCUC [pwkr ssNG DX.13] (Eterna round: R96, puzzle: Same State NG 1) |  |  |  | 0.0296 | 0.026 | 0.0724
13 | GCCAACGCAUGAGGAUAUGGCACCUUAUUGGUGCCAGAAGGCAUGUGUAUUCACAUGAGGAUCACCCAUGUAUUAUAGUUGGCA [Fiskers NG1ss - 16] (Eterna round: R96, puzzle: Same State NG 1) |  |  |  | 0.0182 | 0.132 | 0.176
14 | UUCUCACUGGUAGGAUAUGUAGGAUAUGUACAUGAGGAUCACCCAUGUCAGUUAAUGACAGAAGGAUAGAAGGACCACAUCUCU [pwkr ssNG2 2FMN 1F5s.1] (Eterna round: R96, puzzle: Same State NG 2) |  |  |  | 0.198 | 0.139 | 0.146
15 | GGUACCAACACAGGAUAUGCUAUCCUUUGGGUAGCAGAAGGGUGAAACAUGAGGAUCACCCAUGUGGUGCCAGGGCGUGAGCCC [JL SSNG1 1.93] (Eterna round: R96, puzzle: Same State NG 1) |  |  |  | 0.108 | 0.854 | 2.19
16 | GAGCGCUGUCGAGAGGAUAUGCGGUGAUGGACAUGAGGAUCACCCAUGUUAGCGAUAGCAUUACGGUAGAAGGCUCUACAGCUGC [Mat - Same State 2 - Mod of UCT - D87] (puzzle: Same State 2) |  | 0.0223 |  |  |  | 
17 | AGUCCAGCAAGAGCUGGACAAAAGCAUGUACAUGAGGAUCACCCAUGUUCAUGUACAAGCUUUUAGCUCGUCUUAAA [Mat - hsa-mir-208a - Mod of JL - 58] (puzzle: Sensor for hsa-mir-208a) | 0.505 | 0.0142 | 0.57 |  |  | 
18 | GCGGAAACUCACAUGAGGAUCACCCAUGUUCCGGAAACGGCACAGGAUAUCUGUCCGAAAAGGUCAGAGAAGGGUGAAAUCCGC [Fiskers NG3ss - 92] (Eterna round: R96, puzzle: Same State NG 3) |  |  |  | 0.282 | 0.00995 | 0.0548
19 | GCUCGACUGAUGGCCUACAUGAGGAUCACCCAUGUGAUUGGGCAGGAUAUCUAGAUGCAGGAUGUAGAGAAGGGCCAGUCGAGC [SameState NG3 #45] (Eterna round: R96, puzzle: Same State NG 3) |  |  |  | 1.13 | 0.477 | 0.503
20 | AGUCCAGCCUGAGCUGGACAAAAGCAUGUACAUGAGGAUCACCCAUGUUCAUGUACAAGCUUUUUGCUCGUCUUAAA [JL zipper 52] (Eterna round: R96, puzzle: Sensor for hsa-mir-208a) |  |  |  | 0.615 | 0.0138 | 0.636
21 | GAGUAGUUGGGAGGAUAUCCAUUGUUAUAGAAUGGAGAAGGUUUUAACAUGAGGAUCACCCAUGUAGGACUAUUCCUGUGUAUC [Parity 72 - Jieux - Same State NG 1] (Eterna round: R96, puzzle: Same State NG 1) |  |  |  | 0.0135 | 0.0122 | 0.0168
22 | GCUAGAAAUAAAGCCAACAUGAGGAUCACCCAUGUAUGUUGGCAGGAUAUCGUUUGCUUUGCAAACGAGAAGGGCCAAACUAGC [Mat - Same State NG 3 - JL Mod - D1] (Eterna round: R96, puzzle: Same State NG 3) |  |  |  | 0.057 | 0.127 | 0.129
